In the DeepSol protein solubility set:

Assay: soluble on expression in E. coli; label from the status in PepcDB or PDB records

Row | Sequence | soluble on expression in E. coli
1 | MSSDKFKLDTLFDDNDEIIEPDGADVKKRNVAYYYHKDVGHFHYGQLHPMKPQRLVVCNDLVVSYEMPKYMTVVESPKLDAADISVFHTEDYVNFLQTVTPKLGLTMPDDVLRQFNIGEDCPIFAGLWDYCTLYAGGSVEGARRLNHKMNDIVINWPGGLHHAKKSEASGFCYVNDIVLGILELLKYHKRVLYIDIDIHHGDGVQEAFNNSDRVMTVSFHRFGQYFPGSGSIMDKGVGPGKYFAINVPLMAAIRDEPYLKLFESVISGVEENFNPEAIVLQCGSDSLCEDRLGQFALSFNAHARAVKYVKSLGKPLMVLGGGGYTLRNVARCWALETGVILGLRMDDEIPGTSLYSHYFTPRLLRPNLVPKMNDANSAAYLASIEKETLACLRMIRGAPSVQMQNIVGIRLDEIEQIEENERLQKSSKSSIEYEVGKVSEKMEEECFVEEDSKPPSFPPGQDPRRIGQYWGYDRSGLAPPRSHSDVIEEAKYEDRDRRKDLNIPGIP | not soluble
2 | SLAEGLITGTVLTQFDQLYRKKPGMTMSCAKLPQNISKNRYRDISPYDATRVILKGNEDYINANYINMEIPSSSIINQYIACQGPLPHTCTDFWQMTWEQGSSMVVMLTTQVERGRVKCHQYWPEPTGSSSYGCYQVTCHSEEGNTAYIFRKMTLFNQEKNESRPLTQIQYIAWPDHGVPDDSSDFLDFVCHVRNKRAGKEEPVVVHCSAGIGRTGVLITMETAMCLIECNQPVYPLDIVRTMRDQRAMMIQTPSQYRFVCEAILKVYEEGFVKPLTTSTNK | not soluble
3 | MGSDKIHHHHHHMSRTLHAQTHAWLKVFAISARHLSFTRAAEELHVTTGAVSQQIKQLETRLGFKLFRRLPRRLELTDEGQRLAAVVDQAYDAVGQEVRRLRTGVMSGVLRLRCVPSFLAKWLMPRLTRLQARFPDIELHVASEDSNLSLREGEFELAIDLNDGRYAGFQITTLMDEEIFAVCSPQLLRRRPPLVRPDDLGYYPLLHDVTAWRGSHDYAEWEHYLHALGAASVNVQRGYTFNRNHLTVEAAIAGMGVAIARRTLITNELDTGALIAPFAGTVATGKSYGLVYHPGALDDRRVRAVHDWIVEEAARSTAH | not soluble
4 | MKKVLIAALIAGFSLSATAAQTIRFATEASYPPFESMDANNKIVGFDVDLANALCKEIDASCTFTNQAFDSLIPSLKFRRFDAVMAGMDITPEREKQVLFTTPYYDNSALFVGQQGKYTSVDQLKGKKVGVQNGTTHQKFIMDKHPEITTVPYDSYQNAKLDLQNGRIDAVFGDTAVVTEWLKANPKLAPVGDKVTDKDYFGTGLGIAVRQGNTELQQKFNTALEKVKKDGTYETIYNKWFQK | not soluble
5 | NCHIFKTKAKESQGASPTLGQSEAYHRQNKPYEQQPYGFGVGKKMTSSSKSKVPIFKSFNLKSYQRNHYYSSKKERKHGSPDIDSLFHETNGASKVRMTDAGKMDTNSQFQEIWEILGKNAYTHKSYSEDPNSCLGSALSDHEEEEEAGKQQQQQQQQQQQQQHYGMTSKSSSPDEEKKNNKEPKRESRVSPEENGEEETGHKQFKLPKTSTFSSGSHDSNLQSPFYNHEYRHYARSKFECKNQFRKSVSPIKEIPATTSANEGWNILRDIIEKLNISNVDDRNKDLLFRRDEIGDKNHSDSIDIENLSIKEPKGMKRRKKDDISLEELFQSLPREKDYFMMDAINDSLESINLFKKPKTTQSHEQGGTFAQAESNRAKFKPLLEQCGITPEI | not soluble
6 | MGSDKIHHHHHHMLAIIKQFFAKSHGTTVSDSRFLALNHWLSNTFGEPLSPVLISGDASFRRYFRAVHQGRAMVIMDTPVALIPTEPFVAVRNAYAASGLPVPGIIAKDDEQGFMALEDFGDVQLLSLLNSQSVRHWYPRALALLPGIAAVTQTVLGPLPDYDDAFVRRELGIFTEWLLGTHLKLELTSDEEAIIADAFDMLTQNALEQPKVGMHRDFHSRNLMVVDGELKLLDFQDAVLGPVTYDAVSLLRDCYIRWSEDLVDDMLVEFFVLAHEHALVPPHTDMVQFRRWFELMGLQRHIKAAGIFARLNHRDGKAGYLKDIPLTMHYIRDVAVRYKELGDFAQFIMRRVMPALEAGA | not soluble
7 | KKEQEQMLKEERKRELEEKVKAVEDRAKRRKLREERAWLLAQGKELPPELSHLDPNSPMREEKKTKDLFELDDDFTAMYKVLDVVKAHKDSWPFLEPVDESYAPNYYQIIKAPMDISSMEKKLNGGLYCTKEEFVNDMKTMFRNCRKYNGESSEYTKMSDNLERCFHRAMMKHFPGEDGDTDEEFWIREDEKREKRRSRAGRSGGSHVWTRSRDPEGSSRKQQPMENGGKSLPPTRRAPSSGDDQSSSSTQPPREVGTSNGRGFSHPLHCGGTPSQAPFLNQMRPAVPGTFGPLRGSDPATLYGSSGVLEPHPGEPVQQRQPFTMQPPVGINSLRGPRLGTPEEKQMCGGLTHLSNMGPHPGSLQLGQISGPSQDGSMYAPAQFQPGFIPPRHGGAPARPPDFPESSEIPPSHMYRSYKYLNRVHSAVWNGNHGATNQGPLGPDEKPHLGPGPSHQPRTLGHVMDSRVMRPPVPPNQWTEQSGFLPHGVPSSGYMRPPCKSAGHRLQPPPVPAPSSLFGAPAQALRGVQGGDSMMDSPEMIAMQQLSSRVCPPGVPYHPHQPAHPRLPGPFPQVAHPMSVTVSAPKPALGNPGRAPENSEAQEPENDQAEPLPGLEEKPPGVGTSEGVYLTQLPHPTPPLQTDCTRQSSPQERETVGPELKSSSSESADNCKAMKGKNPWPSDSSYPGPAAQGCVRDLSTVADRGALSENGVIGEASPCGSEGKGLGSSGSEKLLCPRGRTLQETMPCTGQNAATPPSTDPGLTGGTVSQFPPLYMPGLEYPNSAAHYHISPGLQGVGPVMGGKSPASHPQHFPPRGFQSNHPHSGGFPRYRPPQGMRYSYHPPPQPSYHHYQRTPYYACPQSFSDWQRPLHPQGSPSGPPASQPPPPRSLFSDKNAMASLQGCETLNAALTSPTRMDAVAAKVPNDGQNPGPEEEKLDESMERPESPKEFLDLDNHNAATKRQSSLSASEYLYGTPPPLSSGMGFGSSAFPPHSVMLQTGPPYTPQRPASHFQPRAYSSPVAALPPHHPGATQPNGLSQEGPIYRCQEEGLGHFQAVMMEQIGTRSGIRGPFQEMYRPSGMQMHPVQSQASFPKTPTAATSQEEVPPHKPPTLPLDQS | soluble
8 | MGHHHHHHSHMKRMAENELSRSVNEFLSKLQDDLKEAMNTMMCSRCQGKHRRFEMDREPKSARYCAECNRLHPAEEGDFWAESSMLGLKITYFALMDGKVYDITEWAGCQRVGISPDTHRVPYHISFGSRIPGTRGRQRATPDAPPADLQDFLSRIFQVPPGQMPMGTSLQLLSLPLEPLQPLSPTAQYPREKPNLSGGRK | not soluble
9 | MGHHHHHHSHMADIPSFQGTTLTRDTVRQLVSDIFIYKMPFNIELGLELQQFEADKAVLTFARQDKLIGNAAQKILHGGVIAAGLDVAAGLVCVGNTLLRHETISDQEFHHRLARMGTIDMRVDYLRPGYGERFTITSTLLRGGNKIAVARAELHNEQGSHLASATATYIVG | soluble
10 | MKEIILLVFLSRKEQTNRSANIFSSVLKGFEAQTIVYSLSYQKFYSNRKNKHKDETILVTAIYRCRRNPHGMQLKQCSPSVGSGAKTRTSGRLRP | not soluble
11 | MGSDKIHHHHHHMQILTIDVGGTTALFELQLAGHTEQYKIPTGEGFKIEELNNQIAALERDYDLQDYQLAIGVPGLVQNNRLVACKSLPGLNGLSFDTVKTQGELKFICNDMDAGMQATCDAKYACELLVMCGTGIGMSIAFNGQAFTGATGVAGELGHCRVMTESGEFSLEQLASGDSVRSRNITTQDDLYRAGSYLGMGLAWTVNLFNPNRIWLAGNMMNSAPYYKGCLESLKQMALSAPLAEMKINRVDDMETLVCRGLSAMLARDYPRA | not soluble
12 | MWPDNRIARDAHYLYRYDRHGRLTEKTDLIPEGVIRTDDERTHRYHYDSQHRLVHYTRTQYAEPLVESRYLYDPLGRRVAKRVWRRERDLTGWMSLSRKPQVTWYGWDGDRLTTIQNDRTRIQTIYQPGSFTPLIRVETATGELAKTQRRSLADTLQQSGGEDGGSVVFPPVLVQMLDRLESEILADRVSEESRRWLASCGLTVEQMQNQMDPVYTPARKIHLYHCDHRGLPLALVSTEGATEWCAEYDEWGNLLNEENPHQLQQLIRLPGQQYDEESGLYYNRHRYYDPLQGRYITQDPIGLKGGWNFYQYPLNPVQYIDSMGLASKYGHLNNGGYGARPNKPPTPDPSKLPDIAKQLRLPYPIDQASSAPNVFKTFFRALSPYDYTLYCRKWVKPNLTCTPQDDSQYPGMDTKTASDYLPQTNWPTTQLPPGYTCAEPYLFPDINKPDGPATAGIDDLGEILAKMKQRTSRGIRKLEHHHHHH | not soluble
